Experimental data from patent US20220033505A1.

Columns and labels:
[1] = target: CD3 on human T cells (Jurkat cells, primary human T cells) (human) (UniProt P07766); assay: flow cytometry; positive control scFv on human T cells, anti-His Alexa-647
[2] = target: CD3 on human T cells (Jurkat cells, primary human T cells) (human) (UniProt P07766); assay: flow cytometry; 10 nM antibody on Jurkat cells (No Ab background 2075.61)

Chain of CD3 on human T cells (Jurkat cells, primary human T cells) (human) (P07766 23-207): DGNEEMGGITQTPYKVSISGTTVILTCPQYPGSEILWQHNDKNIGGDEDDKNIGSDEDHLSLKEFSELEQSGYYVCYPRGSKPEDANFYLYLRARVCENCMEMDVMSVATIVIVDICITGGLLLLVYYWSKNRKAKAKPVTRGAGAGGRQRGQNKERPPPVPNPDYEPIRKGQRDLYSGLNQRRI

Row | Substance | MFI (n = 2) [1] | MFI (arbitrary units) (arbitrary units) [2]
1 | CD3W36 (anti-CD3 antibody SP34 formatted as LH-scFv, positive control) | 99500 | 
2 | UCHT1 (anti-CD3 clone, positive control) (antibody) |  | 89200
